According to patent publication US20090181027A1 (published 2009):

What was measured:
[1] = molecular target: IL-12 (mouse; target of the rat anti-mouse mAbs C17.8 and C18.2) (mouse) (UniProt P43432); test: cell-based or functional assay
[2] = molecular target: T1, human p40 single mutant E45A (human, UniProt P29460 23-328); test: capture assay, relative binding affinity to p40 muteins (FIG. 4)
T1 construct: Transiently expressed in HEK293E cells; supernatant used
T1 sequence: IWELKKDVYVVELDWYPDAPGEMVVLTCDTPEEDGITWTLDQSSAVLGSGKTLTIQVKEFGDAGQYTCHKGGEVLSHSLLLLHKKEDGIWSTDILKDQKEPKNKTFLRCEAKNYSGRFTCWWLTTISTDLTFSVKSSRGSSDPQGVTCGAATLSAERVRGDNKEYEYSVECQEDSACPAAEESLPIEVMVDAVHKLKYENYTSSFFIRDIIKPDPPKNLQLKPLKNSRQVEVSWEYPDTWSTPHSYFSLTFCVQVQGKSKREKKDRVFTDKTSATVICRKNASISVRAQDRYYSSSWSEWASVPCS
Description: (§1) Seven human p40 single mutants, M23T, L40T, S43R, E45A, E45R, E59R, and D62R, and two double mutants, S43R/E45A and S43R/E45R, are used in the studies. The wide-type human p40, WT hu-p40, was used as the control. The p40 mutants were transiently expressed in HEK293E cells. The supernatants were used for binding assays.
(§2) In brief, MSD high bind plates (Meso Scale Discovery, MD) were coated with 5 μl of a capture monoclonal antibody (5 μg/ml) at room temperature for 1 hour. […] One-hundred and fifty (150) μl of 5% MSD Blocker A buffer was added to each well and incubated for 1 hr at room temperature. Plates were washed three times with 0.1 M HEPES buffer (pH 7.4). These protein-charged ELISA plates were incubated with 25 μl of different transiently expressed p40 mutant supernatants (1:10 dilution with 0.1 M HEPES buffer, pH 7.4) for 1 hr at room temperature. The plates were washed three times with 0.1 M HEPES buffer (pH 7.4). Twenty-five (25) μl of different concentrations of MSD Sulfo-TAG labeled p40 mAb, ranging from 0 to 20 μg/ml, were dispensed to micro-wells. After incubation for 2 hrs shaking at room temperature, plates were washed 3 times with 0.1 M HEPES buffer (pH 7.4). One hundred and fifty (150) μl of diluted MSD Read Buffer T was dispensed into each well and the plates were analyzed with a SECTOR imager (MSD).

[3] = molecular target: T2, human p40 single mutant L40T (human, UniProt P29460 23-328); test: as above
T2 construct: Transiently expressed in HEK293E cells; supernatant used
T2 sequence: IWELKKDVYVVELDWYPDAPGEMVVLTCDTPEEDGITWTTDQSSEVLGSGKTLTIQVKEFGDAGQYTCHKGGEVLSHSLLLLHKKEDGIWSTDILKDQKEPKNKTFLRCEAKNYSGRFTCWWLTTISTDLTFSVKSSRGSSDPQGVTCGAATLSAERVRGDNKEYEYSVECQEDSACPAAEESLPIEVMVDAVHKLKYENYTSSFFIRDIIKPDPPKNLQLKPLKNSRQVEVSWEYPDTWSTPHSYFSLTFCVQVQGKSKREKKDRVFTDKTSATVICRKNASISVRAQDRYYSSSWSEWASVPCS
Description: as §1, §2

[4] = molecular target: T3, human p40 single mutant S43R (human, UniProt P29460 23-328); test: as above
T3 construct: Transiently expressed in HEK293E cells; supernatant used
T3 sequence: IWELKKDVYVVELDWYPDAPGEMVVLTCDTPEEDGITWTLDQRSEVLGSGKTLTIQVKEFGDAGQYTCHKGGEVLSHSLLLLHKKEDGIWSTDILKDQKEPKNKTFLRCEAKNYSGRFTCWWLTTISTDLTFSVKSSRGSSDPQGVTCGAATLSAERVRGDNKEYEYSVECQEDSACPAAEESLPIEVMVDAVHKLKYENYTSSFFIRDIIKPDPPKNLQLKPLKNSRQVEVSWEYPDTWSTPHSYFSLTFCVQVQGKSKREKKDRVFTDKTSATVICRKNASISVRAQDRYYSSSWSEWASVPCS
Description: as §1, §2

[5] = molecular target: T4, human p40 single mutant M23T (human, UniProt P29460 23-328); test: as above
T4 construct: Transiently expressed in HEK293E cells; supernatant used
T4 sequence: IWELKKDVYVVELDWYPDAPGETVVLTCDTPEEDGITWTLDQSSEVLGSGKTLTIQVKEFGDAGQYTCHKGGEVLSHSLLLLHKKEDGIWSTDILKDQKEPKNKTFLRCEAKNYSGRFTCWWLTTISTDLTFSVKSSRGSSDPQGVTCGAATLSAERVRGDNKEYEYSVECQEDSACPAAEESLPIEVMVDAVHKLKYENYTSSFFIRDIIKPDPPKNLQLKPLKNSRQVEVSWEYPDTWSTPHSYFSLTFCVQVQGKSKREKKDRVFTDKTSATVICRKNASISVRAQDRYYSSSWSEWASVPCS
Description: as §1, §2

Sequence of IL-12 (mouse; target of the rat anti-mouse mAbs C17.8 and C18.2) (mouse) (P43432 23-335 limits assumed, chain 1 of 2): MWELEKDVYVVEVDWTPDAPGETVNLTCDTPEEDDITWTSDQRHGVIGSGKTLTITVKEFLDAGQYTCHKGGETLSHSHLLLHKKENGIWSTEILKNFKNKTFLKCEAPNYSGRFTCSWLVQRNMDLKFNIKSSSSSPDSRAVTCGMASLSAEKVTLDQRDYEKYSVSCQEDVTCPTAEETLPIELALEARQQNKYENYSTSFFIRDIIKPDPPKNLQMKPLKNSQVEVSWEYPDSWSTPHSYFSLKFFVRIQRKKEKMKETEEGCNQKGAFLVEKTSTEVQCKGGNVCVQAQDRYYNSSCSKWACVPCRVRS
Sequence of IL-12 (mouse; target of the rat anti-mouse mAbs C17.8 and C18.2) (mouse) (P43431 23-215 limits assumed, chain 2 of 2, further chain): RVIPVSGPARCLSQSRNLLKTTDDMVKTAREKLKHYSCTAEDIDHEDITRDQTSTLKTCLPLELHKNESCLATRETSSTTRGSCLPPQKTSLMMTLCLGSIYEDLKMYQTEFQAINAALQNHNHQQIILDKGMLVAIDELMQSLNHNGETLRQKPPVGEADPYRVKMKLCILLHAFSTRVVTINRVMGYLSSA

For “C17.8 (rat anti-mouse IL-12/IL-23p40, IgG2a) (antibody)”, which in vitro neutralization of IL-12, relative to the anti-p35 mAb (C18.2) (times (versus anti-p35 mAb)) [1] is on record?
The in vitro neutralization of IL-12, relative to the anti-p35 mAb (C18.2) (times (versus anti-p35 mAb)) was 5.

B1: IL-12/IL-23p40 mAb (fully human monoclonal antibody directed against human IL-12/23p40) (antibody, V domains shown)
VH: EVQLVQSGAEVKKPGESLKISCKGSGYSFTTYWLGWVRQMPGKGLDWIGIMSPVDSDIRYSPSFQGQVTMSVDKSITTAYLQWNSLKASDTAMYYCARRRPGQGYFDFWGQGTLVTVSS
VL: DIQMTQSPSSLSASVGDRVTITCRASQGISSWLAWYQQKPEKAPKSLIYAASSLQSGVPSRFSGSGSGTDFTLTISSLQPEDFATYYCQQYNIYPYTFGQGTKLEIKR
notes: Whole IgG made in a mammalian cell line and purified on protein A; also called IL-12/23p40 mAb; IL-12p40 antibody
For B1, which reduction of binding [2] is on record?
Its reduction of binding is about 70%.

What about the reduction of binding [3] of the same molecule?
The reduction of binding was about 40%.

What about the reduction of binding [4] of the same molecule?
The reduction of binding was about 40%.

What about the reduction of binding [5] of the same molecule?
Its reduction of binding is about 40%.
